The values that follow come from the supplement of paper PMC12042874.

± gives the uncertainty stated by the source.

The nature of this series: amyloid nucleation score (Sup35N fusion, yeast selection) (log enrichment); library NNK2; higher = more nucleation; inactive = no reads after selection. In outline: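 Using DiMSum, nucleation scores were taken as the log enrichment of output over input reads, centred on the mode score of non-aggregating sequences. The input and output reads came from Illumina sequencing of plasmid inserts, with sequences under 100 input reads excluded. The yeast were psi-negative, expressed Sup35N fused to peptides of 20 random codons, were induced with 100 μM copper sulfate for 24 hours, and were grown 7 days at 30°C on medium lacking adenine and uracil.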
Turning to LVNACFCACLRNNSFKCDYY, the amyloid nucleation score was 6.966 ± 0.066.

On to LVPPVLGAHVSNKVDVILHA, for which the amyloid nucleation score is -0.199 ± 1.1.

With LVSYNITFEYHNGKGCGEYG, the amyloid nucleation score stood at 3.63 ± 0.12.

As to LVTSCLQVEW, the amyloid nucleation score was 0.284 ± 0.28.

In the case of LVVKGDLFAIYVCPCLCRGS, the amyloid nucleation score came out at 9.397 ± 0.051.

LVVSI showed an amyloid nucleation score of -0.876 ± 0.78.

Regarding LVVSIIRGYLFPCGDPIFLW, the amyloid nucleation score result is “inactive”.

In turn, LVWPTYVGDQAGSCVPGVFP displayed an amyloid nucleation score of 4.51 ± 0.068.

As to LVYFKRRLPTRLIANRRMNG, the amyloid nucleation score is -0.845 ± 0.76.

Take LVYRGLESQPAMRMWHTSST: the amyloid nucleation score is -0.207 ± 0.63.

Turning to LWAFHLNFVLSAVCLRRKNL, the amyloid nucleation score entry was “inactive”.

On to LWEVLWVFFDLNNVRLTMCN, for which the amyloid nucleation score is -0.93 ± 0.78.

As for LWFLYSAVTFTR, the amyloid nucleation score is -0.856 ± 0.76.

For LWHGYGRFRVLSVVF, the amyloid nucleation score came out at 3.53 ± 0.045.

Regarding LWIYNYVIRLDFICMERILL, the amyloid nucleation score result is “inactive”.

The substance LWPVCALDEGL had an amyloid nucleation score of 0.669 ± 0.62.

The substance LWYMMYLRPLWVRPKIDNEV had an amyloid nucleation score of 1.11 ± 0.24.

LYAECFYATILNGDECRWRT returned an amyloid nucleation score of 0.344 ± 0.31.

As to LYDIWEDGSITLFCYSYQHH, the amyloid nucleation score came out at 8.969 ± 0.037.

Substance LYENRQFFCQGFGRWCMKLL yielded an amyloid nucleation score of 0.45 ± 0.74.

The substance LYFLV had an amyloid nucleation score of 6.55 ± 0.085.

Take LYGTE: the amyloid nucleation score was found to be 0.244 ± 0.2.

LYHYPS: the amyloid nucleation score entry is “inactive”.

As for LYKAGIGILLTGVILVF, the amyloid nucleation score was -1.12 ± 0.6.

For LYLCGWVGRSMGFDARPCHF, the amyloid nucleation score came to 3.38 ± 0.098.

As for LYPYAQFCVSVRRLHRLVSR, the amyloid nucleation score came out at 0.306 ± 0.28.

For the substance LYRSVGFGIVEFDH, the amyloid nucleation score result is “inactive”.

The substance LYSDMRASDRYWTLSFDCKI showed an amyloid nucleation score of 1.88 ± 0.48.

LYSLWQKRGRRGSYVSPAGS: the amyloid nucleation score came to 2.88 ± 0.13.

On to LYSLYTYVKRYCASRVRHRY, for which the amyloid nucleation score was found to be 0.688 ± 0.81.

Take LYSRSTSILDERWSTVIILL: the amyloid nucleation score was 2.5 ± 0.23.

Substance LYSVGVR came in with an amyloid nucleation score of -0.387 ± 1.1.

Consider LYSYDLTC, for which the amyloid nucleation score came out at 1.78 ± 0.13.

For LYVVVRLISCYYGAFPSWNR, the amyloid nucleation score is -0.316 ± 0.26.

The substance MAFCCLSVRYTIGRVVAFMY yielded an amyloid nucleation score of -0.4 ± 0.64.

Turning to MAILYVVGWFVP, the amyloid nucleation score was 0.148 ± 0.28.

MANSTLRV: the amyloid nucleation score came to 0.314 ± 0.39.

For the substance MASAVNCESCISSGRVRFSG, the amyloid nucleation score stood at 0.547 ± 0.81.

MATSMNQHGVRMVWSSRLGS yielded an amyloid nucleation score of 4.57 ± 0.051.

The substance MCDLDDRKTTLSPWLRSSLG gave an amyloid nucleation score of 1.14 ± 0.35.

The substance MCGKRGLRGWLKSDDVIIWV yielded an amyloid nucleation score of 5.19 ± 0.074.

Consider MCPDKARGTMVCTERTPRLM, for which the amyloid nucleation score is 0.793 ± 0.15.

As for MDGVMRTRFFLDSDVFYSSH, the amyloid nucleation score came out at 3.69 ± 0.046.

Regarding MDNNVNNRSPFLICRMMDNI, the amyloid nucleation score entry was “inactive”.

For the substance MDPVWVYADFWMF, the amyloid nucleation score is -0.78 ± 1.1.

With MDRWGLFMGYCIADHMIMFD, the amyloid nucleation score was -0.416 ± 0.48.

Consider MDTSYMVLCYKSQRRRSGSR, for which the amyloid nucleation score was 0.776 ± 0.2.

As to MDWSSGSYGSLSSSHAIERF, the amyloid nucleation score is -0.093 ± 0.79.

In the case of MELCYVILWYYIFSCGWWRS, the amyloid nucleation score entry was “inactive”.

Substance MENLRNMAYSNC had an amyloid nucleation score of -1.66 ± 0.61.

MESINSVSSSNIVHRFRRGV returned an amyloid nucleation score of 5.58 ± 0.077.

Substance MFDLQVRTWFWAF showed an amyloid nucleation score of 3.03 ± 0.11.

Turning to MFEVWFLESRHFINWGICSS, the amyloid nucleation score result was “inactive”.

Consider MFGGQELCACLDKEGRTESG, for which the amyloid nucleation score was determined as 5.09 ± 0.08.

The substance MFLRRCSSRVDSKNGHSSKD had an amyloid nucleation score of 0.107 ± 0.39.

MFMSQIPYQCGVKSNSVISK had an amyloid nucleation score of -0.357 ± 0.49.

MFRVARFSKAYDCTHFVING displayed an amyloid nucleation score of 0.546 ± 0.8.

Take MFSNQADFDTNLVSLYDKTW: the amyloid nucleation score is -0.825 ± 0.4.

Substance MFVLFWVVNSTDLCGTAPLV had an amyloid nucleation score of 0.205 ± 0.61.

In turn, MFVQCICRGIHIIVPGSVRS showed an amyloid nucleation score of 3.88 ± 0.13.

The substance MFYLCLRVVFRLKSWDFCDK registered an amyloid nucleation score of -0.271 ± 0.34.

MGFIRINWLNSVLRSPPTHR came in with an amyloid nucleation score of 5.527 ± 0.044.

In turn, MGGGNCLVRFKRYEFPFDIP displayed an amyloid nucleation score of -1.61 ± 0.54.

Substance MGGLNLCLWSSGLMLVGTGR came in with an amyloid nucleation score of 5.237 ± 0.043.

Substance MGHRFLLRRLSFIADLLV yielded an amyloid nucleation score of -1.12 ± 1.

In turn, MGLPSIF came in with an amyloid nucleation score of 5.89 ± 0.092.

With MGSFKC, the amyloid nucleation score was -1.32 ± 0.63.

In turn, MGVDLPIASLCSNCGEAGLG had an amyloid nucleation score of 0.199 ± 0.43.

Regarding MHQVFIKEYAEYYRVCERRM, the amyloid nucleation score worked out at 2.05 ± 0.064.

In the case of MHRLRYKATVFGLNNDDMPP, the amyloid nucleation score was found to be 0.841 ± 0.44.

With MIGKRGVFS, the amyloid nucleation score entry is “inactive”.

Turning to MIIMQANDP, the amyloid nucleation score was -0.302 ± 0.76.

MIKYYVSHNPRWHSRWCNSQ: the amyloid nucleation score was found to be 0.762 ± 0.43.

MISESF registered an amyloid nucleation score of 0.403 ± 0.56.

On to MITWCHIVALSNVGTVVSYN, for which the amyloid nucleation score entry is “inactive”.

For the substance MIWLHIILMLMLVCRVLSE, the amyloid nucleation score stood at 0.914 ± 0.46.

Regarding MIWPCMVP, the amyloid nucleation score was -0.237 ± 1.

For MIYSVMFNVNGACTYNCRII, the amyloid nucleation score was 7.478 ± 0.055.

For MKFKPDLVLFRYVHVKVYLE, the amyloid nucleation score was -1.01 ± 1.1.

MKGACLRGYEVLSMGQSTSY showed an amyloid nucleation score of 0.404 ± 0.8.

Regarding MKKFLGWRYELNCWVLYNSG, the amyloid nucleation score is -1.16 ± 0.76.

The substance MKKWWPVICFGWSQVSFRVE had an amyloid nucleation score of 3.21 ± 0.16.

Consider MLALLCVNNWEGCYWYVGSV, for which the amyloid nucleation score was determined as 6.827 ± 0.063.

MLCVFRVLPMLNWY yielded an amyloid nucleation score of -0.257 ± 0.48.

Consider MLGVSQCVVMVVAGWA, for which the amyloid nucleation score was found to be 1.4 ± 0.16.

MLKQSGDSVAHCLGKTGSQM came in with an amyloid nucleation score of 0.371 ± 0.35.

MLKSHVI showed an amyloid nucleation score of -0.374 ± 0.32.

MLLFSLWGNYAGQVPWDRVG yielded an amyloid nucleation score of -0.513 ± 0.48.

In turn, MLRFFCADWCSLGVCFTLGV had an amyloid nucleation score of -0.137 ± 1.1.

MLRHSANMIKMLKHTTTND yielded an amyloid nucleation score of 0.004 ± 0.45.

Substance MLTFF showed an amyloid nucleation score of -0.409 ± 0.76.

Turning to MLVLSSFNCRLFKINRLR, the amyloid nucleation score is -0.268 ± 0.45.

With MLVPFRVESMSGTRTCKVTV, the amyloid nucleation score is 4.96 ± 0.08.

With MLVRIYLYRKRSYMVRSALM, the amyloid nucleation score was 1.52 ± 0.12.

As for MMFILLYKTFCAGEWAGGMY, the amyloid nucleation score was 6.053 ± 0.04.

Consider MMGECNFCSIGRH, for which the amyloid nucleation score was 4.83 ± 0.078.

Substance MMHEYAAGGLSSGLFWDMSG had an amyloid nucleation score of -0.623 ± 0.63.

Substance MMIFLGLTSFKFLMSAVNTM displayed an amyloid nucleation score of 0.628 ± 0.38.

For the substance MMSSRILGVFDSSSTICVRH, the amyloid nucleation score was -0.218 ± 0.38.

The substance MNACSQGVSQSSDFQL registered an amyloid nucleation score of 5.08 ± 0.066.

In turn, MNFCNHPLMDLMVSDLAWWM registered an amyloid nucleation score of 0.112 ± 0.37.

On to MNHISLFFRSEVQVCGVFC, for which the amyloid nucleation score turned out to be 8.609 ± 0.052.

MNHWGMLRLGSWYRITYA returned an amyloid nucleation score of -0.367 ± 0.38.

Substance MNMFMCFNGHNKRIVVKSKL yielded an amyloid nucleation score of 0.446 ± 0.42.

Substance MNVYYHVGWNGCYSGVWRAE had an amyloid nucleation score of 4.818 ± 0.043.

In turn, MNYTT returned an amyloid nucleation score of -0.242 ± 0.54.

MPLQFDPVWFILNTLLRPHA showed an amyloid nucleation score of -0.228 ± 0.42.

MPQSYFLGSRIKRFKKSRLV gave an amyloid nucleation score of 0.496 ± 0.37.

MQLNNG gave an amyloid nucleation score of 0.075 ± 0.21.

As for MRHSRHFVQYGWFDCGQSGS, the amyloid nucleation score is 1.02 ± 0.29.

Substance MRRTPFCVWKHIYRM gave an amyloid nucleation score of 0.182 ± 1.1.

Regarding MSFFYDMEEWRMCLRLARYR, the amyloid nucleation score came out at 3.82 ± 0.07.

Substance MSFRSRPGLDDGWMIRWRGR returned an amyloid nucleation score of 0.446 ± 0.49.

MSFVDEYCGGEVTISEPSMS gave an amyloid nucleation score of -0.545 ± 0.76.

Consider MSGICPDQSSLYIEDTSIWL, for which the amyloid nucleation score was 2.96 ± 0.068.

Substance MSICANLVLWWLDL yielded an amyloid nucleation score of -0.607 ± 0.63.

As to MSKDTVMPWERIKEVLHCLG, the amyloid nucleation score was 0.342 ± 0.3.

Turning to MSPYLWYGWLEAGLLGIRTL, the amyloid nucleation score worked out at 0.871 ± 0.34.

MSQGSKIRVTWARSGGTRRL registered an amyloid nucleation score of 3.08 ± 0.15.

Take MSYQSINKKGFVVFGRKLLA: the amyloid nucleation score was -0.512 ± 0.39.

For the substance MTALSTVDWRYSAHFSS, the amyloid nucleation score result is “inactive”.

For the substance MTCRRCNNAMWSGLLRLKIY, the amyloid nucleation score is 2.97 ± 0.17.

MTCSTWMQLVRYTSVICILT: the amyloid nucleation score entry was “inactive”.

MTFVHVSNMWDRNEGICGDE had an amyloid nucleation score of -0.323 ± 0.41.

Consider MTIGFNAIYHQFRVTRCLVT, for which the amyloid nucleation score worked out at 0.545 ± 0.53.

As to MTLIAVDSLSYLWANDNRRG, the amyloid nucleation score amounted to 0.353 ± 0.36.

Substance MTRVSQFVVVP came in with an amyloid nucleation score of 1.69 ± 0.13.

In turn, MTVLV returned an amyloid nucleation score of 1.12 ± 0.26.

For MVAFNTFSD, the amyloid nucleation score result is “inactive”.

Regarding MVFFLLQLATAAVFSF, the amyloid nucleation score is -0.073 ± 1.

MVFKRPHVWFDTTTFEFGMV yielded an amyloid nucleation score of 0.732 ± 0.43.

MVIYHVPQYVRYWQP returned an amyloid nucleation score of 0.017 ± 0.63.

MVSFGSGGELFFMHTQFSAR yielded an amyloid nucleation score of -0.311 ± 0.64.

MWLGLTRRMVITSCYN had an amyloid nucleation score of 0.461 ± 0.36.

MWSLRYTVGLEDCG showed an amyloid nucleation score of 0.897 ± 0.34.

On to MYCYRNFLSDDINRGGALVM, for which the amyloid nucleation score was -0.998 ± 0.74.

MYFNSRSNYEYAYCWLFIVF gave an amyloid nucleation score of 0.492 ± 0.44.

MYGTTRLVLWAVIDWFEGVG came in with an amyloid nucleation score of -0.718 ± 0.49.
